Key:
[1] = Method: The peptide stearoyl-[K(DOTA[^68Ga])]3-[…] (SEQ ID NO:15)-amide was dissolved in citrate buffer (pH 8.0)+4% BSA and injected i.v. in the tail vene of tumour bearing WAG/Rij rats. The rats were orthopically injected with 1×10^6 syngenic colon carcinoma cells (CC531 cells) 10 days prior to the measurements. At the day of measurement the rats received the peptide in a concentration of 400 nmol/kg body weight. During the experiments the rats were anaesthetised by isoflurane and kept at 37° C.
[2] = tested on: primary mouse hepatocytes
Method: Next it was analyzed if the modified doxorubicin is still cytotoxic to cells. In this experiment primary mouse hepatocytes isolated from C57BL/6 mice as described in Galle et al., (1994) (37) were incubated and reseeded in 96 well flat bottom plates to form a confluent cell layer. […] The cells were then incubated for 12 h (FIG. 6A) or 24 h (FIG. 6B), respectively. After incubation an MTT assay (Cell proliferation Kit, Roche Mannheim Germany) was performed as indicated by the manufacturer's instructions to determine remaining cell viability. The results are shown in FIGS. 6A and 6B (Cell Viability Assay).

[3] = tested on: HepG2 cells

| SMILES | enrichment in the liver (PET) ([1]; 400 nmol/kg i.v., WAG/Rji rat, five minutes post i.v. injection (FIG. 4A)) | specificity of staining, liver tissue vs tumor tissue (merged PET images) ([1]; tumour bearing rat (CC531 colon carcinoma), FIG. 4C) | cytotoxic effects [2] | cytotoxic activity [3] |
| --- | --- | --- | --- | --- |
| CCCCCCCCCCCCCCCCCC(=O)N[C@@H](CCCCNC(=O)CN1CCN(CC(=O)O)CCN(CC(=O)O)CCN(CC(=O)O)CC1)C(=O)N[C@@H](CCCCNC(=O)CN1CCN(CC(=O)O)CCN(CC(=O)O)CCN(CC(=O)O)CC1)C(=O)N[C@@H](CCCCNC(=O)CN1CCN(CC(=O)O)CCN(CC(=O)O)CCN(CC(=O)O)CC1)C(=O)N[C@@H](CC(N)=O)C(=O)N[C@@H](CC(C)C)C(=O)N[C@@H](CO)C(=O)N[C@H](C(=O)N[C@@H](CO)C(=O)N[C@@H](CC(N)=O)C(=O)N1CCC[C@H]1C(=O)N[C@@H](CC(C)C)C(=O)NCC(=O)N[C@@H](Cc1ccccc1)C(=O)N[C@@H](Cc1ccccc1)C(=O)N1CCC[C@H]1C(=O)N[C@@H](CC(=O)O)C(=O)N[C@@H](Cc1c[nH]cn1)C(=O)N[C@@H](CCC(N)=O)C(=O)N[C@@H](CC(C)C)C(=O)N[C@@H](CC(=O)O)C(=O)N1CCC[C@H]1C(N)=O)[C@@H](C)O | Specific enrichment | staining only liver tissue but not the tumor tissue |  |  |
| COc1cccc2c1C(=O)c1c(O)c3c(c(O)c1C2=O)C[C@@](O)(C(=O)CO)C[C@@H]3O[C@H]1C[C@H](N)[C@H](O)[C@H](C)O1 [doxorubicin] |  |  | significant cytotoxic effects | significant cytotoxicity |

From patent publication US10513539B2, “Hydrophobic modified peptides and their use for liver specific targeting” (Ruprecht-Karls-Universitat Heidelberg, priority 2011, dated 2019)
